# Experimental data: patent US20230235013A1 (MABSOLVE, published 2023)
# Numbering of substitutions follows the chain as printed. In names and notes the source's numbering stands.
# B1: anti-CD20 human IgG1 L234Q/L235D/G236R (antibody)
# heavy: QVQLQQPGAELVKPGASVKMSCKASGYTFTSYNMHWVKQTPGRGLEWIGAIYPGNGDTSYNQKFKGKATLTADKSSSTAYMQLSSLTSEDSAVYYCARSTYYGGDWYFNVWGAGTTVTVSSASTKGPSVFPLAPSSKSTSGGTAALGCLVKDYFPEPVTVSWNSGALTSGVHTFPAVLQSSGLYSLSSVVTVPSSSLGTQTYICNVNHKPSNTKVDKKVEPKSCDKTHTCPPCPAPEQDRGPSVFLFPPKPKDTLMISRTPEVTCVVVDVSHEDPEVKFNWYVDGVEVHNAKTKPREEQYNSTYRVVSVLTVLHQDWLNGKEYKCKVSNKALPAPIEKTISKAKGQPREPQVYTLPPSRDELTKNQVSLTCLVKGFYPSDIAVEWESNGQPENNYKTTPPVLDSDGSFFLYSKLTVDKSRWQQGNVFSCSVMHEALHNHYTQKSLSLSPGK
# light: QIVLSQSPAILSASPGEKVTMTCRASSSVSYIHWFQQKPGSSPKPWIYATSNLASGVPVRFSGSGSGTSYSLTISRVEAEDAATYYCQQWTSNPPTFGGGTKLEIKRTVAAPSVFIFPPSDEQLKSGTASVVCLLNNFYPREAKVQWKVDNALQSGNSQESVTEQDSKDSTYSLSSTLTLSKADYEKHKVYACEVTHQGLSSPVTKSFNRGEC
# notes: also called 2-28
# B2: anti-CD20 human IgG1 L234Q/L235H/G236R (antibody)
# heavy: B1 heavy with D239H
# light: B1 light
# notes: also called 2-29
# B3: anti-CD20 human IgG1 L234Q/L235R/G236R (antibody)
# heavy: B1 heavy with D239R
# light: B1 light
# notes: also called 2-32
# B4: anti-CD20 human IgG1 L234R/L235D/G236R (antibody)
# heavy: B1 heavy with Q238R
# light: B1 light
# B5: anti-CD20 human IgG1 L234S/G236R (antibody)
# heavy: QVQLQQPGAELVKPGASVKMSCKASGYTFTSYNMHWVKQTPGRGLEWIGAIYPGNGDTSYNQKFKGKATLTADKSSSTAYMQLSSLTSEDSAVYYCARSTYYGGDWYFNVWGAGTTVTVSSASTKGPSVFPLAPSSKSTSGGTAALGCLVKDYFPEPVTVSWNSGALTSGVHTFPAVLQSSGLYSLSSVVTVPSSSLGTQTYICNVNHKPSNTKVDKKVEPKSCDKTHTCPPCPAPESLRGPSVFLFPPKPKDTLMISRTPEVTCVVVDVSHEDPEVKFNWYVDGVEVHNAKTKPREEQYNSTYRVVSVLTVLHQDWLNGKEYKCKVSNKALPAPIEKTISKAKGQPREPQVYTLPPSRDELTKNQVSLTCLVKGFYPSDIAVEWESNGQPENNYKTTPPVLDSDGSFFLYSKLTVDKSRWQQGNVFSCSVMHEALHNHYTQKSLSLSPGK
# light: B1 light
# notes: also called 2-50
# B6: anti-CD20 human IgG1 L234S/L235E/G236R (antibody)
# heavy: B1 heavy with Q238S, D239E
# light: B1 light
# notes: also called 2-46
# B7: anti-CD20 human IgG1 L234S/L235I/G236R (antibody)
# heavy: B1 heavy with Q238S, D239I
# light: B1 light
# notes: also called 2-49
# B8: anti-CD20 human IgG1 L234T/L235A/G236R (antibody)
# heavy: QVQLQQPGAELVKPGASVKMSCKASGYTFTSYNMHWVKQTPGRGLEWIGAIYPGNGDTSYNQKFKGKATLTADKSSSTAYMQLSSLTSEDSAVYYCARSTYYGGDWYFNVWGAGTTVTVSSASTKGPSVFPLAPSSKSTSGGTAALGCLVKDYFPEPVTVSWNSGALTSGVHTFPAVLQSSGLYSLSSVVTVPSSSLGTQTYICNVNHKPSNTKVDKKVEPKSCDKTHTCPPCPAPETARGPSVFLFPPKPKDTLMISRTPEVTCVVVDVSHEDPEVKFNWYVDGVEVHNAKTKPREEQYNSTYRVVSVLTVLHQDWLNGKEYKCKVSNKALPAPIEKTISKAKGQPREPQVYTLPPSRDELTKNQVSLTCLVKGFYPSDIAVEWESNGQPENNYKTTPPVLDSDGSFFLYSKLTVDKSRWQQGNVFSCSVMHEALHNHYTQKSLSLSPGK
# light: B1 light
# notes: also called 2-54; 1-152
# B9: anti-CD20 human IgG1 L234T/L235D/G236R (antibody)
# heavy: B1 heavy with Q238T
# light: B1 light
# notes: also called 2-55
# B10: anti-CD20 human IgG1 L234T/L235I/G236R (antibody)
# heavy: B1 heavy with Q238T, D239I
# light: B1 light
# notes: also called 2-57; 1-157
# B11: anti-CD20 (rituximab) human IgG1 L234A/L235A/K322A (antibody)
# heavy: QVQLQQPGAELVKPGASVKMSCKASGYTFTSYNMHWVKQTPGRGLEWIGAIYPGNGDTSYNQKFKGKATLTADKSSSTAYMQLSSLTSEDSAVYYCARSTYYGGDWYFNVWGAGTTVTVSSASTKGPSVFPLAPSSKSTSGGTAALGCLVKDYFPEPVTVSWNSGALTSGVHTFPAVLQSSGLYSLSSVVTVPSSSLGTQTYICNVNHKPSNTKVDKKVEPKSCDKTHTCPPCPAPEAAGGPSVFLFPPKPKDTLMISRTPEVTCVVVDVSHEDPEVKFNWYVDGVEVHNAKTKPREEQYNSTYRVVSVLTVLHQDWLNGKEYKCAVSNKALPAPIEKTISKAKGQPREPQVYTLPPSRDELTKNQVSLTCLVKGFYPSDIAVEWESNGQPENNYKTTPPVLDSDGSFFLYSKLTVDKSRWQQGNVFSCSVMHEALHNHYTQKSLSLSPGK
# light: B1 light
# notes: EU numbering; also called 2-74; copies: 2 + 2
# B12: anti-CD20 (rituximab) human IgG1 L234F/L235E/P331S (antibody)
# heavy: B1 heavy with Q238F, D239E, R240G, P335S
# light: B1 light
# notes: EU numbering; also called 2-75; copies: 2 + 2
# B13: anti-CD20 (rituximab) human IgG1 L234K/L235S/G236R (antibody)
# heavy: B1 heavy with Q238K, D239S
# light: B1 light
# notes: EU numbering; also called 2-24; 1-89; copies: 2 + 2
# B14: anti-CD20 (rituximab) human IgG1 L234Q/L235T/G236R (antibody)
# heavy: B1 heavy with D239T
# light: B1 light
# notes: EU numbering; also called 1-120; copies: 2 + 2
# B15: anti-CD20 (rituximab) human IgG1 L234R/L235H/G236R (antibody)
# heavy: B1 heavy with Q238R, D239H
# light: B1 light
# notes: EU numbering; also called 2-38; copies: 2 + 2
# B16: anti-CD20 (rituximab) human IgG1 L234R/L235I/G236R (antibody)
# heavy: B1 heavy with Q238R, D239I
# light: B1 light
# notes: EU numbering; also called 2-39; copies: 2 + 2
# B17: anti-CD20 (rituximab) human IgG1 L234R/L235K/G236R (antibody)
# heavy: B1 heavy with Q238R, D239K
# light: B1 light
# notes: EU numbering; also called 2-40; copies: 2 + 2
# B18: anti-CD20 (rituximab) human IgG1 L234S/L235H/G236R (antibody)
# heavy: B1 heavy with Q238S, D239H
# light: B1 light
# notes: EU numbering; also called 2-48; copies: 2 + 2
# B19: anti-CD20 (rituximab) human IgG1 L234S/L235R/G236R (antibody)
# heavy: B1 heavy with Q238S, D239R
# light: B1 light
# notes: EU numbering; also called 2-51; copies: 2 + 2
# B20: anti-CD20 (rituximab) human IgG1 L234T/L235R/G236R (antibody)
# heavy: B1 heavy with Q238T, D239R
# light: B1 light
# notes: EU numbering; also called 2-61; copies: 2 + 2
# Molecular target: T1, Histidine-tagged recombinant human FcγRI (CD64) (human, UniProt P12314 16-288, limits assumed)
# T1 construct: bought
# Test: SPR, His-FcγRI captured; Expt 2;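 further: biacore T200 SPR at 25 °C, Fc-variant antibodies at 100 µg/mL flowed 1 min over anti-His-captured receptor, signal read near injection end minus third buffer blank; antibody analyte injected at 100 µg/mL for 1 min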
row,Binder,Corrected response (RU)
1,B1,2.7 RU
2,B2,6.7 RU
3,B3,2.6 RU
4,B4,0.9 RU
5,B5,21.6 RU
6,B6,5.3 RU
7,B7,4.2 RU
8,B8,4.8 RU
9,B9,28.9 RU
10,B10,17.3 RU

# Molecular target: T2, human FcRn (R&D Systems Cat. No. 8639-Fc) (human, UniProt P55899 24-297; P61769 21-119)
# Test: SPR, FcRn captured; Expt 3
# T2 sequence (P55899 24-297 limits assumed, chain 1 of 2): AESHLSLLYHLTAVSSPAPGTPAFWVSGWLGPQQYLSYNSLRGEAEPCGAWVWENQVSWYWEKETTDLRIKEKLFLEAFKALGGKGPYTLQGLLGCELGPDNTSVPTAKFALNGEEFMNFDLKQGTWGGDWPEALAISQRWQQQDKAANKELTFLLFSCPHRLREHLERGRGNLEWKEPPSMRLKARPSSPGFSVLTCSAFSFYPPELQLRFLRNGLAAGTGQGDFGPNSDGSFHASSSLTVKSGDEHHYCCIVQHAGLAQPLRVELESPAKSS
# T2 sequence (P61769 21-119 limits assumed, chain 2 of 2): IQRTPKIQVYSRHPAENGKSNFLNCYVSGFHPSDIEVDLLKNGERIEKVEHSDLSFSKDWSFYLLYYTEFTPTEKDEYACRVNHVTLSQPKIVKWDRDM
row,Binder,Corrected and normalised response (% of wild-type reference)
1,B11,93.3 % of wild-type reference
2,B12,96.3 % of wild-type reference
3,B13,100 % of wild-type reference
4,B14,95.2 % of wild-type reference

# Molecular target: T2, human FcRn (R&D Systems Cat. No. …)
# Test: SPR, FcRn captured; Mean
row,Binder,Corrected and normalised response (% of wild-type reference)
1,B11,94 % of wild-type reference
2,B12,96.5 % of wild-type reference
3,B13,100 % of wild-type reference
4,B14,95.3 % of wild-type reference

# Molecular target: T2, human FcRn (R&D Systems Cat. No. …)
# Test: SPR, FcRn captured; Expt 1
row,Binder,Corrected and normalised response (% of wild-type reference)
1,B11,94 % of wild-type reference
2,B12,96.1 % of wild-type reference
3,B13,100 % of wild-type reference
4,B14,95.6 % of wild-type reference

# Molecular target: T1, Histidine-tagged recombinant human …
# Test: SPR, His-FcγRI captured; Expt 3;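 further: biacore T200 SPR at 25 °C, Fc-variant antibodies at 100 µg/mL flowed 1 min over anti-His-captured FcγRI, signal taken just before injection end minus a buffer blank cycle; antibody analyte injected at 100 µg/mL for 1 min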
row,Binder,Corrected response (RU)
1,B1,4.4 RU
2,B2,8.1 RU
3,B3,9.4 RU
4,B4,4.2 RU
5,B5,30.9 RU
6,B6,6.9 RU
7,B7,6.4 RU
8,B8,7.2 RU
9,B9,62.3 RU
10,B10,24.2 RU

# Molecular target: T1, Histidine-tagged recombinant human …
# Test: SPR, His-FcγRI captured; Expt 1;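 further: SPR at 25 °C on anti-His antibody chip capturing FcγRI, Fc-variant antibodies injected at 100 µg/mL for 1 min, signal near end of injection minus buffer blank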
row,Binder,Corrected response (RU)
1,B1,4.3 RU
2,B2,2.2 RU
3,B3,-0.2 RU
4,B4,0.4 RU
5,B5,33.7 RU
6,B6,3.7 RU
7,B7,3.9 RU
8,B8,4.3 RU
9,B9,6 RU
10,B10,7.2 RU

# Molecular target: T1, Histidine-tagged recombinant human …
# Test: SPR, His-FcγRI captured; mean;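 further: biacore T200 SPR at 25 °C, anti-His surface capturing FcγRI, Fc-variant antibodies injected at 100 µg/mL for 1 min, signal near injection end minus third buffer blank, three repeats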
row,Binder,"Corrected response (RU), Mean"
1,B1,3.8 RU
2,B2,5.7 RU
3,B3,3.9 RU
4,B4,1.8 RU
5,B5,28.7 RU
6,B6,5.3 RU
7,B7,4.8 RU
8,B8,5.4 RU
9,B9,32.4 RU
10,B10,16.2 RU

# Molecular target: T2, human FcRn (R&D Systems Cat. No. …)
# Test: SPR, FcRn captured; Expt 2
row,Binder,Corrected and normalised response (% of wild-type reference)
1,B11,94.7 % of wild-type reference
2,B12,97.1 % of wild-type reference
3,B13,99.7 % of wild-type reference
4,B14,95.1 % of wild-type reference

# Molecular target: T3, Human C1q (Sigma Cat. No. 20476), HRP-labelled (human, UniProt P02745 23-245; P02746 28-253; P02747 29-245)
# T3 construct: Coupled to horse-radish peroxidase with Lightning-Link kit; also called HRP-labelled C1q
# Test: ELISA, antibody coated, HRP-C1q; Expt 1, buffer alone 0.061
row,Binder,Mean Absorbance
1,B15,0.062 absorbance (450 nm)
2,B16,0.169 absorbance (450 nm)
3,B17,0.055 absorbance (450 nm)
4,B18,0.04 absorbance (450 nm)
5,B19,0.037 absorbance (450 nm)
6,B20,0.047 absorbance (450 nm)
